Measured values as given in paper PMC10786891, “Massively parallel profiling of RNA-targeting CRISPR-Cas13d”.
Positions count from the first letter of the chain named. Names may count otherwise.

Target: T1, EsCas13d, nuclease-dead (Eubacterium siraeum, UniProt B0MS50, R295A;H300A;R849A;H854A)
T1 sequence: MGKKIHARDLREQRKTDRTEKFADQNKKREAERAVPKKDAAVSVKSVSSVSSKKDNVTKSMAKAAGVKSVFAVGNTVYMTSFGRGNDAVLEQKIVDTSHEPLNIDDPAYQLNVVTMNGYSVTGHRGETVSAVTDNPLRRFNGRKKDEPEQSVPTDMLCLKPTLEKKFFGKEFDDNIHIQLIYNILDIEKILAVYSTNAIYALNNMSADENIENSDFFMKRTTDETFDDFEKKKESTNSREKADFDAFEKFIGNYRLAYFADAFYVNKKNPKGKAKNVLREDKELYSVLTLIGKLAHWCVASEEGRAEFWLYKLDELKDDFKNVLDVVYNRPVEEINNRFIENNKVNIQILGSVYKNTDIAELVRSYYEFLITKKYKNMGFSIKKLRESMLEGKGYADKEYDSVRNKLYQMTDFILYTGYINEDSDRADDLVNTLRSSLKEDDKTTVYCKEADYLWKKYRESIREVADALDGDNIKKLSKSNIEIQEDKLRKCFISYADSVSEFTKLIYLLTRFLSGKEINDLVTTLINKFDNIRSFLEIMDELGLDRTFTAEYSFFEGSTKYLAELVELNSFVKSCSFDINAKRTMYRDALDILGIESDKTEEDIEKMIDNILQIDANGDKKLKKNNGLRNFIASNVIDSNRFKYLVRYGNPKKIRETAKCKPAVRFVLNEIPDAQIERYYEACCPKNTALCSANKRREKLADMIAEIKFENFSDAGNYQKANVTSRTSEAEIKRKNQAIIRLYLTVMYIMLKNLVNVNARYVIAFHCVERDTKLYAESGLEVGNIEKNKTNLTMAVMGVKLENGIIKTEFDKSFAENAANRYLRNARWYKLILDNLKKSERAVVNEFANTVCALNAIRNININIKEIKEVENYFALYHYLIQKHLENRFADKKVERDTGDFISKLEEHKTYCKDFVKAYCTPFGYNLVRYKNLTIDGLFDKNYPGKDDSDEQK
Assay: crRNA (strand 1, pre-loaded); Mg2+; 40 mM Tris-HCl pH 7.5, 150 mM NaCl, 6 mM MgCl2, 1 mM DTT, 0.1% Tween-20, 0.2 mg/ml BSA; 25 C; 10 min per concentration, then washed
Conditions: tags: His6-TwinStrep-SUMO cleaved; N-terminal SNAP kept (SNAP-Surface 488); label: 3' end held by stalled T7 RNA polymerase

B1: target 2 MT 5'PFS GCA 3'PFS AGC (mixed)
RNA 1: CACCCGUGCAAAAUUGCAGGGGUCUAAAACCUUCUCCAAAUUGUUUCAUCCU
RNA 2: GGGAAUGGAUCCACAUCUACGAAUUCGCAAGGAUGAAACAAUUUGGAGAAGAGCAGAUCGGAAGAGCACACGU
Question: For B1, which Kd is on record?
Answer: 7.5 ± 1.6 nM

B2: target 2 MT 5'PFS UGG 3'PFS AUC (mixed)
RNA 1: B1 RNA 1
RNA 2: B1 RNA 2 with G27U, C28G, A29G, G53U
Question: B2 was tested. Which Kd did it give?
Answer: 5.5 ± 0.6 nM

B3: target 2 MT 5'PFS CUG 3'PFS UAA (mixed)
RNA 1: B1 RNA 1
RNA 2: B1 RNA 2 with G27C, C28U, A29G, A52U, G53A, C54A
Question: B3 was tested. Which Kd did it give?
Answer: 2.77 ± 0.2 nM

B4: target 2 MT 5'PFS GCA 3'PFS CGC (mixed)
RNA 1: B1 RNA 1
RNA 2: B1 RNA 2 with A52C
Question: How did the Kd turn out when B4 was run?
Answer: 13.1 ± 1.9 nM

B5: target 2 MT 5'PFS GAU 3'PFS AAC (mixed)
RNA 1: B1 RNA 1
RNA 2: B1 RNA 2 with C28A, A29U, G53A
Question: B5 was tested. Which Kd did it give?
Answer: 16 ± 5 nM

B6: target 2 MT 5'PFS GAU 3'PFS AAU (mixed)
RNA 1: B1 RNA 1
RNA 2: B1 RNA 2 with C28A, A29U, G53A, C54U
Question: B6 was tested. Which Kd did it give?
Answer: 9.1 ± 1.6 nM

B7: target 2 MT 5'PFS GGA 3'PFS UUU (mixed)
RNA 1: B1 RNA 1
RNA 2: B1 RNA 2 with C28G, A52U, G53U, C54U
Question: For B7, which Kd is on record?
Answer: 41 ± 9 nM

B8: target 2 MT 5'PFS CUC 3'PFS AUG (mixed)
RNA 1: B1 RNA 1
RNA 2: B1 RNA 2 with G27C, C28U, A29C, G53U, C54G
Question: How did the Kd turn out when B8 was run?
Answer: 1.74 ± 0.26 nM

B9: target 2 MT 5'PFS GGA 3'PFS UUG (mixed)
RNA 1: B1 RNA 1
RNA 2: B1 RNA 2 with C28G, A52U, G53U, C54G
Question: How did the Kd turn out when B9 was run?
Answer: 18.3 ± 2.7 nM

B10: target 2 MT 5'PFS UCU 3'PFS AUA (mixed)
RNA 1: B1 RNA 1
RNA 2: B1 RNA 2 with G27U, A29U, G53U, C54A
Question: For B10, which Kd is on record?
Answer: 9.3 ± 1.1 nM

B11: target 2 MT 5'PFS GGA 3'PFS UUA (mixed)
RNA 1: B1 RNA 1
RNA 2: B1 RNA 2 with C28G, A52U, G53U, C54A
Question: B11 was tested. Which Kd did it give?
Answer: 18.1 ± 3.5 nM

B12: target 2 MT 5'PFS GGU 3'PFS UAA (mixed)
RNA 1: B1 RNA 1
RNA 2: B1 RNA 2 with C28G, A29U, A52U, G53A, C54A
Question: How did the Kd turn out when B12 was run?
Answer: 9.8 ± 1.1 nM

B13: target 2 MT 5'PFS GCA 3'PFS CGA (mixed)
RNA 1: B1 RNA 1
RNA 2: B1 RNA 2 with A52C, C54A
Question: Which Kd does the source give for B13 here?
Answer: 8.4 ± 1.1 nM

B14: target 2 MT 5'PFS CUC 3'PFS AUU (mixed)
RNA 1: B1 RNA 1
RNA 2: B1 RNA 2 with G27C, C28U, A29C, G53U, C54U
Question: For B14, which Kd is on record?
Answer: 2.2 ± 0.4 nM

B15: target 2 MT 5'PFS GAC 3'PFS AUC (mixed)
RNA 1: B1 RNA 1
RNA 2: B1 RNA 2 with C28A, A29C, G53U
Question: With B15 as the binder, how does the Kd read?
Answer: 13.5 ± 2.6 nM

B16: target 2 MT 5'PFS CUG 3'PFS UAU (mixed)
RNA 1: B1 RNA 1
RNA 2: B1 RNA 2 with G27C, C28U, A29G, A52U, G53A, C54U
Question: How did the Kd turn out when B16 was run?
Answer: 5.3 ± 1.2 nM

B17: target 2 MT 5'PFS UAU 3'PFS AAU (mixed)
RNA 1: B1 RNA 1
RNA 2: B1 RNA 2 with G27U, C28A, A29U, G53A, C54U
Question: How did the Kd turn out when B17 was run?
Answer: 16.2 ± 1.5 nM

B18: target 2 MT 5'PFS AGG 3'PFS CUG (mixed)
RNA 1: B1 RNA 1
RNA 2: B1 RNA 2 with G27A, C28G, A29G, A52C, G53U, C54G
Question: How did the Kd turn out when B18 was run?
Answer: 7.4 ± 0.9 nM

B19: target 2 MT 5'PFS AUU 3'PFS AUG (mixed)
RNA 1: B1 RNA 1
RNA 2: B1 RNA 2 with G27A, C28U, A29U, G53U, C54G
Question: For B19, which Kd is on record?
Answer: 7.5 ± 0.8 nM

B20: target 2 MT 5'PFS UGG 3'PFS AUG (mixed)
RNA 1: B1 RNA 1
RNA 2: B1 RNA 2 with G27U, C28G, A29G, G53U, C54G
Question: For B20, which Kd is on record?
Answer: 5.2 ± 0.5 nM

B21: target 2 MT 5'PFS GAU 3'PFS AAG (mixed)
RNA 1: B1 RNA 1
RNA 2: B1 RNA 2 with C28A, A29U, G53A, C54G
Question: B21 was tested. Which Kd did it give?
Answer: 11.8 ± 1.6 nM

B22: target 2 MT 5'PFS GAC 3'PFS AUG (mixed)
RNA 1: B1 RNA 1
RNA 2: B1 RNA 2 with C28A, A29C, G53U, C54G
Question: For B22, which Kd is on record?
Answer: 22 ± 5 nM

B23: target 2 MT 5'PFS GAC 3'PFS AUU (mixed)
RNA 1: B1 RNA 1
RNA 2: B1 RNA 2 with C28A, A29C, G53U, C54U
Question: With B23 as the binder, how does the Kd read?
Answer: 12.1 ± 2.1 nM

B24: target 2 MT 5'PFS GAU 3'PFS AAA (mixed)
RNA 1: B1 RNA 1
RNA 2: B1 RNA 2 with C28A, A29U, G53A, C54A
Question: How did the Kd turn out when B24 was run?
Answer: 6.9 ± 1 nM

B25: target 2 MT 5'PFS GUC 3'PFS AGA (mixed)
RNA 1: B1 RNA 1
RNA 2: B1 RNA 2 with C28U, A29C, C54A
Question: B25 was tested. Which Kd did it give?
Answer: 16.8 ± 2.8 nM

B26: target 2 MT 5'PFS GUC 3'PFS AGC (mixed)
RNA 1: B1 RNA 1
RNA 2: B1 RNA 2 with C28U, A29C
Question: How did the Kd turn out when B26 was run?
Answer: 13.2 ± 2.3 nM

B27: target 2 MT 5'PFS GUC 3'PFS AGG (mixed)
RNA 1: B1 RNA 1
RNA 2: B1 RNA 2 with C28U, A29C, C54G
Question: B27 was tested. Which Kd did it give?
Answer: 15.3 ± 2.1 nM

B28: target 2 MT 5'PFS CCU 3'PFS UAG (mixed)
RNA 1: B1 RNA 1
RNA 2: B1 RNA 2 with G27C, A29U, A52U, G53A, C54G
Question: How did the Kd turn out when B28 was run?
Answer: 1.16 ± 0.21 nM

B29: target 2 MT 5'PFS CUC 3'PFS AUA (mixed)
RNA 1: B1 RNA 1
RNA 2: B1 RNA 2 with G27C, C28U, A29C, G53U, C54A
Question: For B29, which Kd is on record?
Answer: 2.11 ± 0.28 nM

B30: target 2 MT 5'PFS GGU 3'PFS UAU (mixed)
RNA 1: B1 RNA 1
RNA 2: B1 RNA 2 with C28G, A29U, A52U, G53A, C54U
Question: B30 was tested. Which Kd did it give?
Answer: 17.6 ± 3.3 nM

B31: target 2 MT 5'PFS GGA 3'PFS UUC (mixed)
RNA 1: B1 RNA 1
RNA 2: B1 RNA 2 with C28G, A52U, G53U
Question: For B31, which Kd is on record?
Answer: 28 ± 6 nM

B32: target 2 MT 5'PFS AGG 3'PFS CUC (mixed)
RNA 1: B1 RNA 1
RNA 2: B1 RNA 2 with G27A, C28G, A29G, A52C, G53U
Question: With B32 as the binder, how does the Kd read?
Answer: 9.4 ± 1.7 nM

B33: target 2 MT 5'PFS CUC 3'PFS AUC (mixed)
RNA 1: B1 RNA 1
RNA 2: B1 RNA 2 with G27C, C28U, A29C, G53U
Question: How did the Kd turn out when B33 was run?
Answer: 1.91 ± 0.31 nM

B34: target 1 insC 3' of 9,insU 3' of 1 (mixed)
RNA 1: CACCCGUGCAAAAAUGCAGGGGUCUAAAACUGAGCGGAUAACCUCUCUAUGG
RNA 2: GGGAAUGGAUCCACAUCUACGAAUUCGUACCAUAGAGAGGUUACUCCGCUCAUCCGAGAUCGGAAGAGCACACGU
Question: For B34, which Kd is on record?
Answer: 14.6 ± 0.7 nM

B35: target 1 insU 3' of 14,insA 3' of 4 (mixed)
RNA 1: B34 RNA 1
RNA 2: B34 RNA 2 with G39U, U41G, A43U, C44A, U50A, C51U, A52C, U53A
Question: B35 was tested. Which Kd did it give?
Answer: 26 ± 4 nM

B36: target 1 C7U,A18G (mixed)
RNA 1: B34 RNA 1
RNA 2: GGGAAUGGAUCCACAUCUACGAAUUCGUACCAUGGAGAGGUUAUUCGCUCACCGAGAUCGGAAGAGCACACGU
Question: B36 was tested. Which Kd did it give?
Answer: ~70 nM

B37: target 1 insA 3' of 7,insU 3' of 4 (mixed)
RNA 1: B34 RNA 1
RNA 2: B34 RNA 2 with C44U, U45C, C46A, C51U, A52C, U53A
Question: How did the Kd turn out when B37 was run?
Answer: 6.3 ± 0.5 nM
